The experiment addresses unfused negative control SGFP2. The experiment can be described thus: pull-down; SGFP2-fused proteins held on protein G magnetic beads via anti-GFP pAb; incubated with Nluc-ALG-2 (300 ng/mL) in buffer HKM, 0.2% Nonidet P-40, 0.1% gelatin, 100 μM CaCl2, 2 h, 4 °C; bound luciferase activity relative to Sec31A-p (100%).

Chain of nanoluciferase (NanoLuc, Nluc)-fused ALG-2 (O75340 whole entry, the tested form may be a part): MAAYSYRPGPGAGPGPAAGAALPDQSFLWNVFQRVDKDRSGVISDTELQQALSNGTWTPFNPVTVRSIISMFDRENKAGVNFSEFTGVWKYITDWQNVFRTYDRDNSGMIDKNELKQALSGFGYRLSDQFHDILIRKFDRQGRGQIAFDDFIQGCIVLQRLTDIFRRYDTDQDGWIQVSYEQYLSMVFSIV

Take “nanoluciferase (NanoLuc, Nluc)-fused ALG-2 (from UniProt O75340 1-191) (natural protein)”: the binding activity relative to Sec31A-p (100%) turned out to be 0.18%.

The values above are taken from publication PMC7504102.
